Measurements published in the supplement of paper PMC11865577.

Columns and labels:
Experiment in all cases: pull-down binding Z-score (relative to library population); higher = stronger binding
[1] = tested on: TO-3-N3 (biotin conjugate); details: RNA library: Library-2
Procedure, shortened: (§1)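 An RNA library (1 μg) carrying a Cy5 or Cy3 end label was heat-folded in phosphate/NaCl/KCl buffer, then incubated for 60 min at 25 °C with streptavidin beads loaded with 100 pmol of biotin-conjugated small molecule. The beads were washed three times, and bound RNA was released in hot SDS and hybridised to a DNA barcode microarray for 20 h at 55.5 °C. Each binding score was derived by subtracting the signal from beads without compound, averaging the barcoded replicate probes after removing the highest and lowest, and expressing the result as a Z-score relative to the library mean and standard deviation.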

[2] = tested on: TO-3-N3-2 (biotin conjugate); details: RNA library: Library-2
Procedure, shortened: as §1

TO-N3 (biotin conjugate) = details: RNA library: Library-2
Procedure, shortened: as §1

[3] = tested on: TO-N3-2 (biotin conjugate); details: RNA library: Library-2
Procedure, shortened: as §1

[4] = tested on: G-clamp-N3 (biotin conjugate); details: RNA library: Library-1 (pre-miRNA loops + repeats)
Procedure, shortened: as §1

| Sequence | pull-down binding Z-score [1] | pull-down binding Z-score [2] | pull-down binding Z-score (TO-N3 (biotin conjugate)) | pull-down binding Z-score [3] | pull-down binding Z-score [4] |
| --- | --- | --- | --- | --- | --- |
| UGUUGUAACAACA | -0.671 | -0.596 | -0.992 | -1.35 | – |
| UGUUUUCUACAAAGAAAACA [SHAPE_invivo_SARS-CoV-2_Motif_122] | -0.462 | -0.34 | -0.865 | -1.85 | – |
| UUAAAAUAUGACUUCACGGAAGAGAGGUUAAAACUCUUUGACCGUUAUUUUAA [DMSMaPseq_invitro_SARS-CoV-2_Motif_258] | 0.0656 | 0.159 | -0.184 | -0.898 | – |
| UUAAACACGCUUGUUAAACAACUUAGCUCCAAUUUUGGUGCAAUUUCAAGUGUUUUAA [SHAPE_invivo_SARS-CoV-2_Motif_457] | 0.47 | -0.0371 | 0.301 | -0.627 | – |
| UUAACGUGAGUCUUGUAAAACCUUCUUUUUACGUUUACUCUCGUGUUAA [DMSMaPseq_invitro_SARS-CoV-2_Motif_474] | -0.223 | -0.0657 | -0.275 | -1.02 | – |
| UUAAGGUGUUUACAACAGUAGACAACAUUAA [DMSMaPseq_invitro_SARS-CoV-2_Motif_93] | -1.01 | -0.382 | -1.08 | -1.08 | – |
| UUAAGUGACACACUUAA | -0.711 | -0.663 | -1.18 | -1.49 | – |
| UUAAUGCCUGUCUGUGUGGAAACUAAAGCCAUAGUUUCAACUAUACAGCGUAAAUAUAAGGGUAUUAA [DMSMaPseq_invitro_SARS-CoV-2_Motif_83] | -0.287 | 0.502 | -0.439 | -0.463 | – |
| UUAAUGGAGUCACAUUAA [DMSMaPseq_invitro_SARS-CoV-2_Motif_357] | 0.485 | -0.347 | 0.273 | -1 | – |
| UUAAUUGAAUUGUGCGUGGAUGAGGCUGGUUCUAAAUCACCCAUUCAGUACAUCGAUAUCGGUAAUUAUACAGUUUCCUGUUUACCUUUUACAAUUAA [DMSMaPseq_invitro_SARS-CoV-2_Multi_84_ComplexLevel_1] | -0.244 | 0.0361 | -0.239 | -0.403 | – |
| UUACACCACUGGGCAUUGAUUUAGAUGAGUGGAGUAUGGCUACAUACUACUUAUUUGAUGAGUCUGGUGAGUUUAA | -0.972 | -0.516 | -1.09 | -1.04 | – |
| UUACAGAAGAGGUUGGCCACACAGAUCUAAUGGCUGCUUAUGUAG | -0.523 | -0.244 | -0.376 | -0.138 | – |
| UUACAGAUCUUUACCAGGAGUUUUCUGUGGUGUAGAUGCUGUAA [SHAPE_invivo_SARS-CoV-2_Motif_187] | -0.96 | -0.414 | -1.21 | -1 | – |
| UUCAGUUUCCUUACUGGUAA [hsa-mir-302e] | -0.394 | -0.353 | – | -0.299 | -0.769 |
| UUUAUGUGAACUAAAAUAUAAA [hsa-mir-513c] | -0.547 | -0.21 | – | -1 | -1.49 |
| UUUGAAGUGUUCUAAAUGGUUCAAA [hsa-mir-424] | -0.532 | – | -0.738 | -1.05 | 1.09 |
